Data on 41 sequences can be found in the nanobody polyreactivity screen of Harvey et al. (2022).

This series in a line: yeast display, Sf9 membrane polyspecificity reagent, FACS + sequencing; frameworks hold sequencing errors. The essentials:
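A nanobody's polyreactivity label depends on the gate it was sorted from. Yeast display cells were stained with 10% biotinylated, detergent-solubilized Sf9 membrane reagent for 1 hour at 4 °C, enriched on streptavidin microbeads and sorted by FACS. The low and high (top ~1%) gates were set on anti-HA fluorescence for expression and streptavidin fluorescence for reagent binding.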
In the case of “QVQLVESGGGLVQAGGSLRLSCAASGRIFARNAMGWYRQAPGKERELVAAISSSGGTYYADSVKGRFTISRDNAKNTVYLQMNSLKPEDTAVYYCNARVRTQQRWVDYWGQGTQVTVSS”, the “polyreactivity (PSR sort gate)” value is on record as “high polyreactivity”.
Turning to “QVQLVESGGGLVQAGGSLRLSCAASGRIFARYAMGWYRQAPGKERELVAAISRGGGSTYYADSVKGRFTISRDNAKNTVYLQMNSLKPEDTAVYYCNRLSKQKQEFDYWGQGTQVTVSS”, the “polyreactivity (PSR sort gate)” value is listed as “high polyreactivity”.
Regarding “QVQLVESGGGLVQAGGSLRLSCAASGRIFARYTMGWYRQAPGKERDLVAAISRGGGTNYADSVKGRFTISRDNAKNTVYLQMNSLKPEDTAVSYCAADVSLVYPYSYRYYYWGQGTQVTVSS”, the “polyreactivity (PSR sort gate)” value is “low polyreactivity”.
As to “QVQLVESGGGLVQAGGSLRLSCAASGRIFASNAMGWYRPAPGKERELVAAITTTGGSTYYADSVKGRFTISRDNAKNTVYLQMNSLKPEDTAVYYCAKRLGYRYPTYDYWGQGTQVTVSS”, the “polyreactivity (PSR sort gate)” value was “high polyreactivity”.
The same measure for “QVQLVESGGGLVQAGGSLRLSCAASGRIFASYAMGWYRQAPGKERELVASITRRGGSTYYADSVKGRFTISRDNAKNTVYLQMNSLKPPGSTYEGGYWGQGTQVTVSS”: “low polyreactivity”; for “QVQLVESGGGLVQAGGSLRLSCAASGRIFASYVMGWYSQAPGKERELVAAISRSGVSTYYADSVKGRFTISRDNEKNTVYLQINSLIPEDTAVYYCATTRFPRSFQEFGYWGQGTQVNVSS”: “high polyreactivity”.
With “QVQLVESGGGLVQAGGSLRLSCAASGRIFATNAMGWYREAPGKERELVATITRSAGRTYYADSVKGRFTISRDNAKNSVYLQMNSLKPEDTAVYYCAASYWDTEPGYREYDYWGQGTQVTVSS” the entry was “low polyreactivity”; with “QVQLVESGGGLVQAGGSLRLSCAASGRIFATNAMGWYRQAPGKERELVAGIRRSGARTYYADSVKGRFTISRDNAKNTVYLQMYSLKPEDTAVYYCNASLFIEIYSFQYDDHFAEYGYWGQGTQVTVSS”, “high polyreactivity”.
The same measure for “QVQLVESGGGLVQAGGSLRLSCAASGRIFATNAMGWYRQAPGKERELVATITRSAGRTYYADSVKGRFTISRDNAKYTVYLQMNSLKPEDTAVYYCAASYWDTEPGYREYDYWGQGSQVTVSS”: “low polyreactivity”; for “QVQLVESGGGLVQAGGSLRLSCAASGRIFAVNAMGWYRQAPGKERELVASIRWSGGSTYYADSVKGRFTISRDNAKNTVYLQMNSLKPEDTAVYYCAAVFYLWGQGTQVTVSS”: “high polyreactivity”.
With “QVQLVESGGGLVQAGGSLRLSCAASGRIFAVNAMGWYRQAPGKERELVATIRGSGTSTYYADSVKGRFTISRDNAKNTVYLQMNSLKPEDTAVYYCAARGRYRQFNYWGQGTQVTVSS”, the “polyreactivity (PSR sort gate)” value was “high polyreactivity”.
Regarding “QVQLVESGGGLVQAGGSLRLSCAASGRIFAVNAMGWYRQAPGNERELVAAITRGGSTNYADSVKGRFTISRDNAKNTVYLQMNSLKPEDTAVYYCAARVYTSPPVRSAPTGYYYWGQGTQVTVSS”, the “polyreactivity (PSR sort gate)” value is given as “high polyreactivity”.
With “QVQLVESGGGLVQAGGSLRLSCAASGRIFAWNDMGWYRQAPGKERELLPLFWSGGSTYYADSVKGRFTIARDNAKNTGYLQRNSLKPEDTAVYYCNKDSPPITPYDYWGQGTQVTVSS” the entry was “low polyreactivity”.
The same measure for “QVQLVESGGGLVQAGGSLRLSCAASGRIFAWYTMGWYRQAPGKERELVAAISWNGGRTYYADSVKGRFTISRDNAKNTVYLQMNSLKPEDTAVYYCNADWYWRVYWGQGTQVTVSS”: “high polyreactivity”.
The same measure for “QVQLVESGGGLVQAGGSLRLSCAASGRIFAYNAMGWYRQAPGKERELVAAIDSGGDTNYADSVKGRFTISRDNAKNTVYLQMNSLKPEDTAVYYCAARLYVLRWYPYDYWGHGTQVTVSS”: “low polyreactivity”; for “QVQLVESGGGLVQAGGSLRLSCAASGRIFAYNAMGWYRQAPGKERELVAAITWSGGITYYADSVKGRFTISRDNAKNTVYLQMNSLKPEDTAVYYCNVYVSAGEEDEYWGQGTQVTVSS”: “low polyreactivity”.
In the case of “QVQLVESGGGLVQAGGSLRLSCAASGRIFAYNAMGWYRQAPGKERELVAAITWSGSTYYADSVKGRFTISRDNAKNTVYLQMNSLKPEDTAVYYCNAQYRGYWNRGYDYWGQGTQVTVSS”, the “polyreactivity (PSR sort gate)” value is “high polyreactivity”.
With “QVQLVESGGGLVQAGGSLRLSCAASGRIFAYYAKGWYRQAPRKQRELVAAISSGGNTNYADSVKGRFTISRDNAKKTVYLQMNSLKPEDSAVYYCSAYHFSFGWIRVDDWGQGTQVTVSS”, the “polyreactivity (PSR sort gate)” value is recorded as “high polyreactivity”.
With “QVQLVESGGGLVQAGGSLRLSCAASGRIFAYYVMGWYRQAPAKERELVASISSGGGTYYADSVKGRFTISRDNAKNTVYLQMNSLKPEDTAVYYCAARWLRYVYPDGHLFWYDYWGQGTQVTVSS” the entry was “high polyreactivity”.
The same measure for “QVQLVESGGGLVQAGGSLRLSCAASGRIFAYYVMGWYRQGPGKERELVASISSGGGTYYADSVKGRFTISRDNAKNTVYLQMNSLKPEDTAVYYCAARWRRYVYPDGHLFWYDYWGQGTQVTVSS”: “high polyreactivity”; for “QVQLVESGGGLVQAGGSLRLSCAASGRIFDANAMGWYRQAPGKERELVAANSRRGGRTYYADSVKGRFTISRDNAKNTVYLQMNSLKPEDTAVYYCARVPTRAEDVAGWTGMDYWGQGTQVTVSS”: “high polyreactivity”; for “QVQLVESGGGLVQAGGSLRLSCAASGRIFDCYAMGWYIQAPGKERELVAAIRASGGRTYYADSVKGRFTISRDNAKNTVYLQMNSLKPEDTAVYYCAADSVKYGGDYWGQGTQVTVSS”: “high polyreactivity”.
The same measure for “QVQLVESGGGLVQAGGSLRLSCAASGRIFDDNAMGWYRQAHGKERELVATISSTGGRTYYADSVKGRFTISRDNAKKTVYLQMNSLKPEDTAVYYCAARRLQGGYYYWGQGTQVTVSS”: “high polyreactivity”.
For the sequence “QVQLVESGGGLVQAGGSLRLSCAASGRIFDDYDMGWYRQAPGKEREFVAAISTSGGSTYYADSVKGRFTISRDNAKNTVYLQMNSLKPEDTAVYYCATREYRYTGRQSRRYYWGQGTQVTVSS”, the “polyreactivity (PSR sort gate)” value is “high polyreactivity”.
With “QVQLVESGGGLVQAGGSLRLSCAASGRIFDDYDMGWYRQAPGKERELVAAISFDGGNTYADSVKGRFTISRDNAKNTVYLQMNSLKPEDTAVYYCARDDTSPGYGDQSSNAAYYYWGQGTQVTVSS” the entry was “low polyreactivity”; with “QVQLVESGGGLVQAGGSLRLSCAASGRIFDGNAMGWYRQAPGKERELVATITRGGRTNYADSVKGRFTISRDNAKNTVYLQMNTLKPEDTAVYYCATSYPGYAYNQAWYPYGYWGQGTQVTVSS”, “low polyreactivity”; with “QVQLVESGGGLVQAGGSLRLSCAASGRIFDGNTMGWYIPAPGKERELVAAISGGGSTDYADSVKGRFTISRDNAKNTVYLQMNSLKPEDTAVYYCAATTGPVPLKGDYWGQGTQVTVSS”, “low polyreactivity”.
With “QVQLVESGGGLVQAGGSLRLSCAASGRIFDGYAMGWYRQAPGKEWELVASISDDGGSTYYADSVKGRFTISRDNEQNTVYLQLNSLKPDDTAVYYCAAVYRRRSYSFYYWGHGTQVTVSS” the entry was “high polyreactivity”; with “QVQLVESGGGLVQAGGSLRLSCAASGRIFDGYTMGWYRQAPGKERELVAAITYRSGRTYYADSVKGRFTISRDNAKNTVYLQMNSLKPEDTAVYYCNKVKRSFIVNTDDYCGQGTQVTVSS”, “high polyreactivity”.
With “QVQLVESGGGLVQAGGSLRLSCAASGRIFDHNAMGWYRQAPGKERELVAAITWSGGRTYYADSVKGRFTISRDNAKNTVYLQMNSLKPEDTAVYYCNAPVSRRGGNYWGLGTQVTVSS” the entry was “high polyreactivity”; with “QVQLVESGGGLVQAGGSLRLSCAASGRIFDIYAMGWYRQAPGKERELVASISWSGDSTYYADSVKGRFTISRDNAKNTVYLEMNSLKPEDTAVYYCAAEGEDTEGYDYDYWGQGTQVTVSS”, “low polyreactivity”; with “QVQLVESGGGLVQAGGSLRLSCAASGRIFDIYDMGWYIQAPGKERELVAAITSGGNTYYADSVKWRFTISRDNAKNTVYLQMNSLKPEDTAVYYCNAARETRPRDYYWGQGTQVTVSS”, “low polyreactivity”.
Turning to “QVQLVESGGGLVQAGGSLRLSCAASGRIFDKYTMGWYRQAPGTERELVAAISKSGSGTFYADSVKGRFTISRDNAKNTVYLQMNSLKPEDTAVYYCARVYTVGTGRSWRLDYWGQGTQVTVSS”, the “polyreactivity (PSR sort gate)” value is “high polyreactivity”.
The same measure for “QVQLVESGGGLVQAGGSLRLSCAASGRIFDLNAMGWYRQAPGKERELVAAISYSGGRTFYADSVKGRFTISRDNAKNTVYLQMNSLKPEDTAVYYCNARYGKPAYQYRMDYWGQGTQVTVSS”: “low polyreactivity”.
On to “QVQLVESGGGLVQAGGSLRLSCAASGRIFDLNAMGWYRQAPGKERELVASITTSTGSTYYADSVKGRFTISRDNAKNTVYLQMNSLKPEDTAVYYCAADKSTHPFPSDPGYGYWGQGTQVTVSS”, for which the “polyreactivity (PSR sort gate)” value is given as “low polyreactivity”.
With “QVQLVESGGGLVQAGGSLRLSCAASGRIFDLNAMGWYRQAPGKERELVATITRSGVSTYYADSVKGRFTISRDNAKNTVYLQLYSLKPEDTAVYYCAKDRYGWGYDYWGQGTQVTVSS” the entry was “low polyreactivity”.
With “QVQLVESGGGLVQAGGSLRLSCAASGRIFDLYAMGWYRQAPGKERELVATISSGGSTYYADSVKVRFTISRDNAKNTVYLQMNSLKPEDTAVYYCAADSWVQFDYWGQGKQVTVSS” the entry was “low polyreactivity”; with “QVQLVESGGGLVQAGGSLRLSCAASGRIFDNYAMGWYRQAPGKERELVAAITSTGRTNYADSVKGRFTISRDNAKYTVYLQMYSLKPEDTAVYYCNVDYQYARSGHANAYEYYYWGQGTQVTVSS”, “low polyreactivity”.
Consider “QVQLVESGGGLVQAGGSLRLSCAASGRIFDNYVMGWYRQAPGKERELVAAITWDGTSTYYADSVKGRFTISRDNAKNTVYLQMNSLKPEDTAVYYCAADFYPYSWEEVDYWGQGTQVTVSS”, for which the “polyreactivity (PSR sort gate)” value is reported as “low polyreactivity”.
With “QVQLVESGGGLVQAGGSLRLSCAASGRIFDPHAMGWYRPAPGKERELVASSTRRGGSTYYADSVKGRFTSSRDIAKNNVYLQMNSLKPEDTSVYYCARPNLLSGDYWGQGTQVTVSS” the entry was “high polyreactivity”.
With “QVQLVESGGGLVQAGGSLRLSCAASGRIFDPNVMVRYRTAPGKERELVAAIRTSGGRTYYADSVKGRFTISRDNAKNTVYLQMNSLKPEDTAVYYCAALYKGKYDYWGQGTQVNVSS” the entry was “high polyreactivity”.
